This note sets out measurements from patent US20100092465A1, “TREATMENT OF GRAFT-VERSUS-HOST DISEASE” (priority 2006, published 2010).

A short description of data set [1]: Pharmacokinetics of soluble receptors in female C57B1/6 mice. Type of data set: in vivo, mouse. The note with it: for terminal / circulatory half-life, comparison in words: human Fc5 fusion versus mouse Fc1 fusion. The protocol: Studies were performed to evaluate the pharmacokinetics of the mouse (IL-27RAm(mFc1)) and human (IL-27RA-Fc5) soluble receptors in female C57B1/6 mice.
Serum was generated from each sample and analyzed by a qualified enzyme-linked immunosorbant assay (ELISA). The resulting mean serum concentration versus time profiles were then subjected to noncompartmental pharmacokinetic analyses. The following pharmacokinetic parameters were calculated: C0 and Cmax (extrapolated concentration at time zero and maximum serum concentration, respectively), Tmax (time to achieve maximum concentration), t1/2 λz (terminal half-life), AUC0-t (area under the concentration versus time curve from time zero to the last measurable time point), AUCINF (area under the concentration versus time curve extrapolated to infinity), Cl or Cl/F (clearance or clearance divided by bioavailable fraction, respectively), VSS or VZ/F (steady state volume of distribution or volume of distribution divided by the bioavailable fraction, respectively), and F (bioavailable fraction).

A further data set deals with T1, huIL-27 (Homo sapiens, UniProt Q14213+Q8NEV9).
T1 sequence (Q14213 21-229): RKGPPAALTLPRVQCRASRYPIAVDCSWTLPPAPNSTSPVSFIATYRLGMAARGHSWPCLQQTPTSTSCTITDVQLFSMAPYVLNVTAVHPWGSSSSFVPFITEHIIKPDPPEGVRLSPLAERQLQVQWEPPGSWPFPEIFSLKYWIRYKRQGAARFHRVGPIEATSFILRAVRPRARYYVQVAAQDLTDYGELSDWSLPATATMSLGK
T1 sequence (Q8NEV9 29-243): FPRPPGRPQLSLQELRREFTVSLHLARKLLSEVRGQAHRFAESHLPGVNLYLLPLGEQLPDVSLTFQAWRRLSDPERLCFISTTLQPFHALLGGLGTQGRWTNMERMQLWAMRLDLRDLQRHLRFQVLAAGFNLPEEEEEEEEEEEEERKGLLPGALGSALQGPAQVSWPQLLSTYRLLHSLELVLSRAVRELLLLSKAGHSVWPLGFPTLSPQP
The data set is described as follows: Phospho-STAT3 neutralization assay, mouse spleens, huIL-27. Format: cell-based. The note with it: Mouse Spleens; ligand huIL-27 at EC90. The text has this:
Whole mouse spleens were harvested from C57 B1/6 mice and washed two times with 1×PBS before being plated out at 2×10^5 cells/well in assay media (RPMI 1640 plus 10% fetal bovine serum) in 96-well, round-bottom tissue culture plates. Total human PBMC (peripheral blood mononuclear cells) were thawed from a frozen vial collected from a leukapherisis donation and washed two times with 1×PBS before being plated out at 10^6 cells/well in assay media in 96-well, round-bottom tissue culture plates. […] Following pre-incubation, treatments were added to the plates containing the cells and incubated together at 37° C. for 15 minutes.
Following incubation, cells were washed with ice-cold wash buffer (BIO-PLEX Cell Lysis Kit, BIO-RAD Laboratories, Hercules, Calif.) and put on ice to stop the reaction according to manufacturer's instructions. […]
Capture beads (BIO-PLEX Phospho-Stat3 Assay, BIO-RAD Laboratories) were combined with 50 μL of 1:1 diluted lysates and added to a 96-well filter plate according to manufacture's instructions (BIO-PLEX Phosphoprotein Detection Kit, BIO-RAD Laboratories). […] After the final wash, beads were resuspended in 125 μL/well of bead suspension buffer, shaken for 30 seconds, and read on an array reader (BIO-PLEX, BIO-RAD Laboratories) according to the manufacture's instructions. Data were analyzed using analytical softward (BIO-PLEX MANAGER 3.0, BIO-RAD Laboratories). […]

For “human IL-27RA-Fc5: human IL27RA extracellular domain (amino acids 1 to 512 of SEQ ID NO:5) fused to Fc5, effector minus human gamma1 Fc; SEQ ID NO:3”, in data set [1] (IP, 100 μg), the AUC0-120 came to 1310 µg·h/mL, the AUCINF is 1380 µg·h/mL, the Cl/F is reported as 0.0725 mL/h and the Tmax stood at 3 h. Besides, in data set [1] (IP, 100 μg), the “t1/2 λz” value was found to be 28.3 h. The highest concentration (Cmax) in data set [1] (IP, 100 μg, serum) worked out at 35200 ng/mL. Also, in data set [1] (IV, 100 μg), the AUC0-120 turned out to be 1400 µg·h/mL, the AUCINF turned out to be 1510 µg·h/mL, the Cl is on record as 0.0664 mL/h and the distribution volume (Vss) turned out to be 2.54 mL. For the same substance, in data set [1] (IV, 100 μg), the “t1/2 λz” value is given as 34.9 h. The substance further registered a Co in data set [1] (IV, 100 μg, serum) of 122 µg/mL. Besides, in data set [1] (SC, 100 μg), the AUC0-120 stood at 1130 µg·h/mL, the AUCINF worked out at 1210 µg·h/mL, the Cl/F is 0.0828 mL/h and the time to peak (Tmax) was determined as 6 h. Further, the “t1/2 λz” value in data set [1] (SC, 100 μg) stood at 29.3 h. In data set [1] (SC, 100 μg, serum), the Cmax was determined as 21000 ng/mL. In addition, in data set [1] (listed as fusion protein comprising an Fc fragment that had been engineered to remove effe), the “terminal / circulatory half-life, comparison in words” value is on record as “markedly improved circulatory half-life”. The “terminal / circulatory half-life, comparison in words” value in data set [1] (listed as human Fc5 fusion protein) was “much longer terminal half-life”. Also, the IC50 with huIL-27 worked out at 320 pM.

Usually Tmax stands for the time from dosing to the highest level. A word on the Cmax: it is the highest concentration seen after dosing. Broadly, the Vss is the apparent volume that relates the amount in the body to the concentration in plasma or blood. Low values mean little distribution into tissue, high ones wide distribution into tissue. By IC50 is commonly meant the concentration at which inhibition is half-maximal.
